The series deals with the molecule itself. Put plainly: cryo-EM structure; single-particle cryoEM and helical reconstruction (SPRING) of pili isolated from T. thermophilus HB27; wide and narrow filaments boxed separately from the same micrographs; atomic models built de novo.

B1: PilA4, major pilin of Thermus thermophilus HB27 (subunit of the wide type IV pilus) (natural protein, UniProt Q72JC0 7-131, looked up)
chain: FTLIELLIVIAIIAILAAVLIPNLLAARKRANDTVVTAYLNDAVKFQEMYQIDNNSYTSNQAALISLGLKSTPANVTFSIVSASANSYCMIAGHSGGTVWFAATPDKGVYKTNTAVTSSQPESCP
modifications: extra densities attributed to O-linked glycans at Ser59, Ser66 and Ser71; disulphide bond Cys89-Cys124
notes: PilA4, major type IV pilin of Thermus thermophilus HB27; mature pilin of 125 amino acids (Phe1 to Pro125) after cleavage of the class III signal peptide; all residues of the mature protein are in the model PDB 6XXD. numbers count on: the mature protein; Assembled as a helical filament (wide pilus; rise 9.33 Å, twist 92.5°); the deposited model holds 16 identical subunits; also called wide pilus …
Turning to B1, the binding result is “binds”.

B2: PilA5 (TT_C1836), pilin of Thermus thermophilus HB27 (subunit of the narrow type IV pilus) (natural protein, UniProt Q72GL2 6-116, looked up)
chain: FTLIELAIVIVIIGILVAIAVPRFVDLTDQANQANVDATAAAVRSAYAIATVQAKGIPTCDQVFANPEGGSTSGSTWTSSDNSTTVSCNASADTFTISRGGKTRTLNLTVN
modifications: extra density attributed to an O-linked glycan at Ser73; disulphide bond Cys60-Cys88
notes: 111 amino acids; all residues of the mature protein are in the model PDB 6XXE. numbers count on: the mature protein; Assembled as a helical filament (narrow pilus; rise 11.26 Å, twist 84.3°); the deposited model holds 16 identical subunits; also called Tt17; narrow pilus subunit; source: endogenous, pili isolated from T. thermophilus HB27 cells (ethanolamine buffer pH 10.5, ammonium sulfate …)
With B2, the binding result was “binds”.

These data come from paper PMC7203116, “Cryo-electron microscopy reveals two distinct type IV pili assembled by the same bacterium” (Nature Communications, 2020).
